In paper PMC3431625 (The Journal of Biological Chemistry, 2012):

Legend:
Collagen type I = Collagen type I (UniProt P02453;P02465); test: ELISA
[1] = target: Mouse laminin isolated from Engelbreth-Holm-Swarm mouse sarcoma (mouse, UniProt P19137;P02469;P02468); test: ELISA

Chain of Collagen type I (P02453 162-1217, chain 1 of 2): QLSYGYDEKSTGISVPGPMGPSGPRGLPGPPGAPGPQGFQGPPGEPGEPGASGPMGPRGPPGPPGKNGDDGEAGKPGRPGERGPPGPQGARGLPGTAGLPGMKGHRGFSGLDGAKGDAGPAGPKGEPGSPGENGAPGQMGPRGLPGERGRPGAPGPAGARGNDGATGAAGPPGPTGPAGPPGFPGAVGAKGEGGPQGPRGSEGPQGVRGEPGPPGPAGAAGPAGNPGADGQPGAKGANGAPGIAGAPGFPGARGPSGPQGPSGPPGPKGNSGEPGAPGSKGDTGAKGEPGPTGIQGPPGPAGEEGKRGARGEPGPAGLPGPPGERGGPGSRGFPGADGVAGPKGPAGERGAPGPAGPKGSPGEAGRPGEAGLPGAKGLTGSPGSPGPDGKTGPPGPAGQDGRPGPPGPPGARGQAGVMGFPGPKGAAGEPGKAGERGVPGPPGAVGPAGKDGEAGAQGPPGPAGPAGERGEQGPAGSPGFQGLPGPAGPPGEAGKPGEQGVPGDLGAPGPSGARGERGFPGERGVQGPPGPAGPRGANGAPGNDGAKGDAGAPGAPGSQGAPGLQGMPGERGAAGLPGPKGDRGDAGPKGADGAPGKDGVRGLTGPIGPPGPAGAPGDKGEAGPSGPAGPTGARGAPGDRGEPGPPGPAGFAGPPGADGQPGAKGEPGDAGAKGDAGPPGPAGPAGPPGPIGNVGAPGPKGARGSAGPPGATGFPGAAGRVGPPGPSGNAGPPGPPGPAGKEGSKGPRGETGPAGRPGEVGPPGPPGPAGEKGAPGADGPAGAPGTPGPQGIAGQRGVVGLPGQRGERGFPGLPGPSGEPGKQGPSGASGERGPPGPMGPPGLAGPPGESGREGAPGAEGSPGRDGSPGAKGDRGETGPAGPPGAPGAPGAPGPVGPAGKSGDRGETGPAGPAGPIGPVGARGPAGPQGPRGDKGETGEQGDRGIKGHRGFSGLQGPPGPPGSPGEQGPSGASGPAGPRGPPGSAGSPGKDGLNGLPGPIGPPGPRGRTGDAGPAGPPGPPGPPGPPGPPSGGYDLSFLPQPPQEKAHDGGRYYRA
Chain of Collagen type I (P02465 80-1117, chain 2 of 2): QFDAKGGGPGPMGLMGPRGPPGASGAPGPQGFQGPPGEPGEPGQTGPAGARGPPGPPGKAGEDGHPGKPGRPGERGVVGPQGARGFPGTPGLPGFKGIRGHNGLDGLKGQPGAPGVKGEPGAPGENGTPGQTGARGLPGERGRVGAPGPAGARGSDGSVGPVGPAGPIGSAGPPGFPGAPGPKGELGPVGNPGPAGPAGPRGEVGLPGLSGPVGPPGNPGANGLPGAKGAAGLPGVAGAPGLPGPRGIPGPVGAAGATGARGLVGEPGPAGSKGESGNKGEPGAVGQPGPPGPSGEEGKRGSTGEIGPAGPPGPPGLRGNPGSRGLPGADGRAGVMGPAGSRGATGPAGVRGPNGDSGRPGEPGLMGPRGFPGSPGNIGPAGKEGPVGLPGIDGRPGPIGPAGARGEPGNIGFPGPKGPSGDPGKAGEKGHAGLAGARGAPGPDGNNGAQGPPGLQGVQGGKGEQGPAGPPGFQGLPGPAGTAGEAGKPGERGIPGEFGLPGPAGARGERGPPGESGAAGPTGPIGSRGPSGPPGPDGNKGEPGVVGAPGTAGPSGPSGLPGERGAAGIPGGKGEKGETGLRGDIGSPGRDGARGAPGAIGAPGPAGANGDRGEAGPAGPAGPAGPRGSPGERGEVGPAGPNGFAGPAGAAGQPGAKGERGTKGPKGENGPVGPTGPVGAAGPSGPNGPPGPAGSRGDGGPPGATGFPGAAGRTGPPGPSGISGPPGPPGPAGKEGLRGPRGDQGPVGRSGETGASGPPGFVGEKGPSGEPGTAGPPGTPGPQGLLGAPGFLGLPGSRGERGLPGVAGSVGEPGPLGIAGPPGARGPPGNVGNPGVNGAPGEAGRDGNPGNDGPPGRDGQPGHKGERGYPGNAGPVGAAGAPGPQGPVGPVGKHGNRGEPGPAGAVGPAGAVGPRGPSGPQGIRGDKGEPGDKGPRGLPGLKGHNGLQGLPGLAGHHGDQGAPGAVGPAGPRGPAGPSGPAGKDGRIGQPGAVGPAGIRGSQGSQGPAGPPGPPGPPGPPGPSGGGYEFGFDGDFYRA

B1: Recombinant bovine opticin (natural protein)
chain: ASLSEEREGDPYAILHLGDYVLSLDNYDEVIDPSNYDELIDYGDQLPQVKGTSLASLTRTRFTQSTEAARTLPSNPTTARPPTLGLLAAPANHGLPTCLICVCLGSSVYCDDADLENIPPLPQTTAYLYARFNRISHIRAGDFKGLTKLKRIDLSGNSISSIDDKALRLLPALRDLILPENKLVALPTLPTSIEVLDVRMNRLQSSGIQPEAFRALEKLQFLYLADNLLDAIPPSLPLSLRSLHLQNNMIETMQRDAFCDAEEHRHTRRPLEDIRLDGNPINLSLFPSAYFCLPRLPTGRFV
Question: Which results are given for B1?
Answer: Kd (Collagen type I): 60 nM; Kd [1]: 40 nM
